Assay results: US20200317768A1 (published 2020)
Changes are numbered by the printed parent chain.

T1: human FcγRIIaH extracellular domain, His-tagged (human, UniProt P12318 34-217)
T1 construct: also called human FcγRIIa (type H); FcgRIIaH; not shown: C-terminal His-tag
T1 sequence: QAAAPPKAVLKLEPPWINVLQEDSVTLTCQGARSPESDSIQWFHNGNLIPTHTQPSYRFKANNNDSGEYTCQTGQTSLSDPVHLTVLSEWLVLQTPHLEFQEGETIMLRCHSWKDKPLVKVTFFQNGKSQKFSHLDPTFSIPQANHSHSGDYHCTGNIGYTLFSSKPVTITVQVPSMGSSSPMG

T2: human FcγRIIaR extracellular domain, His-tagged (human, UniProt P12318 34-217)
T2 construct: also called human FcγRIIa (type R); FcgRIIaR; not shown: C-terminal His-tag
T2 chain: T1 sequence with H134R

T3: cynomolgus monkey FcγRIIa2 extracellular domain, His-tagged (cynomolgus monkey)
T3 construct: also called cyno FcγRIIa2; cynoFcgRIIa2; not shown: C-terminal His-tag
T3 chain: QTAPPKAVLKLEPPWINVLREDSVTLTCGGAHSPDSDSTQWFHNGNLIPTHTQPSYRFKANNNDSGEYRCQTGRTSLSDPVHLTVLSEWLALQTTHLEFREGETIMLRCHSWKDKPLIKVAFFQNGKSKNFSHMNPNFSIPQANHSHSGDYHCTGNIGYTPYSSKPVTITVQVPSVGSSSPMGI

T4: cynomolgus monkey FcγRIIa3 extracellular domain, His-tagged (cynomolgus monkey)
T4 construct: also called cyno FcγRIIa3; cynoFcgRIIa3; not shown: C-terminal His-tag
T4 chain: T3 chain with K127I, N130K, H133P, Q142R

T5: cynomolgus monkey FcγRIIa1 extracellular domain, His-tagged (cynomolgus monkey)
T5 construct: also called cyno FcγRIIa1; cynoFcgRIIa1; not shown: C-terminal His-tag
T5 chain: T3 chain with T95P, A121T, K127I, S128A, N130K, N135D, Q142R

T6: human FcγRIIb extracellular domain, His-tagged (human, UniProt P31994 43-217)
T6 construct: also called FcgRIIb (human); not shown: C-terminal His-tag
T6 sequence: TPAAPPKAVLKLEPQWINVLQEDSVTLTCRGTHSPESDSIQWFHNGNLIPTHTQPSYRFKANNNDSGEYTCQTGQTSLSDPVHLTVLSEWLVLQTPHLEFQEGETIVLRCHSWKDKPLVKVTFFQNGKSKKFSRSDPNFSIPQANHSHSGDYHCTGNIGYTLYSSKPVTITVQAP

T7: cynomolgus monkey FcγRIIb extracellular domain, His-tagged (cynomolgus monkey)
T7 construct: also called cyno FcγRIIb; cynoFcγRIIb; not shown: C-terminal His-tag
T7 chain: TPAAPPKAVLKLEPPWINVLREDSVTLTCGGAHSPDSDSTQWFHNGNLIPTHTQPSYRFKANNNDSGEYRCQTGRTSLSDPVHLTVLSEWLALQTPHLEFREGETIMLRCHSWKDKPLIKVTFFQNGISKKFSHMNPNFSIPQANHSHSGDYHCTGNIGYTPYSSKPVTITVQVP

B1: M103205H795-MY472/M103202L889-SK1 (antibody, human IgG1, kappa)
heavy: QVTLKESGPVLVKPTETLTLTCTVSGIDLSHDDISWVRQAPGKGLEWVGIISYAGSTYYASWAKGRLTISKDTSKNQVVLTMTNMDPVDTATYYCARGVPAYSHGGDLWGQGTLVTVSSASTKGPSVFPLAPSSKSTSGGTAALGCLVKDYFPEPVTVSWNSGALTSGVHTFPAVLQSSGLYSLSSVVTVPSSSLGTQTYICNVNHKPSNTKVDKKVEPKSCDKTHTCPPCPSPELLTGPSVFLFPPKPKDTLMISRTPEVTCVVVDVSDEDPEVKFNWYVDGVEVHNAKTKPREEQYNSTYRVVSVLTVLHQDWLNGKEYKCKVSNKALPKPIEKTISKAKGQPREPQVYTLPPSREEMTKNQVSLTCLVKGFYPSDIAVEWESNGQPENNYKTTPPVLDSDGSFFLYSKLTVDKSRWQQGNVFSCSVMHEALHNHYTQKSLSLSP
light: DIVMTQSPATLSLSPGERATLSCTSSQSVYHANWLSWFQQKPGQPPKLLIYWASTLAYGVPSRFSGSGSGTDFTLTISSLQPEDAATYYCAGGYGGGRYAFGQGTKVEIKRTVAAPSVFIFPPSDEQLKSGTASVVCLLNNFYPREAKVQWKVDNALQSGNSQESVTEQDSKDSTYSLSSTLTLSKADYEKHKVYACEVTHQGLSSPVTKSFNRGEC
notes: copies: 2 + 2
B2: M103205H795-MY474/M103202L889-SK1 (antibody, human IgG1, kappa)
heavy: B1 heavy with S233V
light: B1 light
notes: copies: 2 + 2
B3: M103205H795-MY476/M103202L889-SK1 (antibody, human IgG1, kappa)
heavy: B1 heavy with S233Y
light: B1 light
notes: copies: 2 + 2
B4: M103205H795-MY475/M103202L889-SK1 (antibody, human IgG1, kappa)
heavy: B1 heavy with S233W
light: B1 light
notes: copies: 2 + 2
B5: M103205H795-MY473/M103202L889-SK1 (antibody, human IgG1, kappa)
heavy: B1 heavy with S233T
light: B1 light
notes: copies: 2 + 2

These binders were tested against T1, human FcγRIIaH extracellular domain, … (assay: SPR (BIACORE); KD of SG1 divided by KD of variant;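 further: relative to parent M103205H795-SG1 carrying the SG1 human heavy chain constant region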).
In the case of B1, the “KD fold (SG1 = 1)” value is reported as 3.8 fold.
For B2, the “KD fold (SG1 = 1)” value was 4.1 fold.
With B3 the “KD fold (SG1 = 1)” value was 4.9 fold.
With B4 the “KD fold (SG1 = 1)” value was 7.7 fold.
B5 was tested, and the “KD fold (SG1 = 1)” value was 3.1 fold.

Target: T2, human FcγRIIaR extracellular domain, …
Assay: SPR (BIACORE); KD of SG1 divided by KD of variant;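 further: relative to parent M103205H795-SG1 carrying the SG1 human heavy chain constant region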
In the case of B1, the “KD fold (SG1 = 1)” value is reported as 2.2 fold.
B2 was tested, and the “KD fold (SG1 = 1)” value was 3.2 fold.
B3 was tested, and the “KD fold (SG1 = 1)” value was 4.4 fold.
In the case of B4, the “KD fold (SG1 = 1)” value is reported as 3.2 fold.
For B5, the “KD fold (SG1 = 1)” value was 2.2 fold.

These binders were tested against T8, human FcγRIIIaV extracellular domain, His-tagged (human, UniProt P08637 17-208) (assay: SPR (BIACORE); KD of SG1 divided by KD of variant;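 further: relative to parent M103205H795-SG1 carrying the SG1 human heavy chain constant region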).
T8 construct: also called FcgRIIIaV; not shown: C-terminal His-tag
T8 sequence (P08637 17-208 F176V): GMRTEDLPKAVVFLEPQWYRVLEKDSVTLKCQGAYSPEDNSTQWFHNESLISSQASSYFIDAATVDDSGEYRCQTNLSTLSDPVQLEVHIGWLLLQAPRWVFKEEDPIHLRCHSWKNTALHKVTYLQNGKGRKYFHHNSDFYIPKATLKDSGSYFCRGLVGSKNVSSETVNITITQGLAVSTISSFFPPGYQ
B1 was tested, and the “KD fold (SG1 = 1)” value was 0.1 fold.
For B2, the “KD fold (SG1 = 1)” value was 0.2 fold.
With B3 the “KD fold (SG1 = 1)” value was 0.1 fold.
For B4, the “KD fold (SG1 = 1)” value was 0.2 fold.
B5 was tested, and the “KD fold (SG1 = 1)” value was 0.2 fold.

Target: T3, cynomolgus monkey FcγRIIa2 …
Assay: SPR (BIACORE); KD of SG1 divided by KD of variant;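 further: relative to parent M103205H795-SG1 carrying the SG1 human heavy chain constant region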
For B1, the “KD fold (SG1 = 1)” value was 2.4 fold.
With B2 the “KD fold (SG1 = 1)” value was 2.8 fold.
With B3 the “KD fold (SG1 = 1)” value was 3.9 fold.
In the case of B4, the “KD fold (SG1 = 1)” value is reported as 3.1 fold.
In the case of B5, the “KD fold (SG1 = 1)” value is reported as 2 fold.

Target: T4, cynomolgus monkey FcγRIIa3 …
Assay: SPR (BIACORE); KD of SG1 divided by KD of variant
For B1, the “KD fold (SG1 = 1)” value was 3.3 fold.
In the case of B2, the “KD fold (SG1 = 1)” value is reported as 3.5 fold.
With B3 the “KD fold (SG1 = 1)” value was 6.5 fold.
With B4 the “KD fold (SG1 = 1)” value was 7.4 fold.
B5 was tested, and the “KD fold (SG1 = 1)” value was 3.1 fold.

Target: T5, cynomolgus monkey FcγRIIa1 …
Assay: SPR (BIACORE); KD of SG1 divided by KD of variant
With B1 the “KD fold (SG1 = 1)” value was 1.5 fold.
For B2, the “KD fold (SG1 = 1)” value was 1.6 fold.
With B3 the “KD fold (SG1 = 1)” value was 2.3 fold.
In the case of B4, the “KD fold (SG1 = 1)” value is reported as 3.2 fold.
With B5 the “KD fold (SG1 = 1)” value was 2 fold.

What follows are binders tested against T6, human FcγRIIb extracellular domain, … (assay: SPR (BIACORE); KD of SG1 divided by KD of variant).
B1 was tested, and the “KD fold (SG1 = 1)” value was 1.8 fold.
With B2 the “KD fold (SG1 = 1)” value was 2.3 fold.
With B3 the “KD fold (SG1 = 1)” value was 3.8 fold.
In the case of B4, the “KD fold (SG1 = 1)” value is reported as 4.2 fold.
B5 was tested, and the “KD fold (SG1 = 1)” value was 2.1 fold.

Target: T7, cynomolgus monkey FcγRIIb extracellular …
Assay: SPR (BIACORE); KD of SG1 divided by KD of variant
For B1, the “KD fold (SG1 = 1)” value was 2.7 fold.
In the case of B2, the “KD fold (SG1 = 1)” value is reported as 3.6 fold.
For B3, the “KD fold (SG1 = 1)” value was 4.6 fold.
In the case of B4, the “KD fold (SG1 = 1)” value is reported as 8.7 fold.
For B5, the “KD fold (SG1 = 1)” value was 3.1 fold.
